Literature values, collected in patent US11147890B2, “Stimuli-responsive particles encapsulating a gas and methods of use” (Children's Medical Center Corporation, priority 2017, dated 2021).

Settings: per gram basis

In the case of hemoglobin, the oxygen carrying capacity is listed as 0.17 mL/g.
